Data taken from US12599570B2, “Biodegradable extended release microsphere-hydrogel ocular drug delivery system and method” (priority 2015, dated 2026).
“And” between values parts separate entries of the source, which are not always exact repeats. Equal entries are not always repeated.

Key:
[1] = Animal modeling of vancomycin hydrogel DDS (subconjunctival injection); format: in vivo
[2] = Release of vancomycin from hydrogel; format: physicochemical; settings: VAN encapsulated in hydrogel only
Excerpt: A third example is a DDS where only hydrogel is used to release vancomycin (VAN, antibiotics, 1450 Da). VAN was encapsulated in the hydrogel as a short-term release DDS (e.g., for use as a prophylactic treatment before ocular surgery).

[3] = Bioactivity of vancomycin released from hydrogel; settings: throughout release from hydrogel
[4] = In vitro single and dual release of DEX nanoparticles and AFL microspheres from hydrogel DDS (Example 3); format: physicochemical; settings: first 14 days
Protocol: The DDS for single release consisted of 20 mg of DEX nanoparticles (DEX-np) suspended within a biodegradable N-isopropylacrylamide/poly(ethylene glycol)-co-(L-lactic acid) diacrylate/(NIPAAm/PEG-PLLA-DA) thermoresponsive hydrogel. The dual release consisted of 20 mg of DEX-np and 20 mg of AFL microspheres (AFL-ms) suspended within the hydrogel. DEX release in vitro, with and without AFL-ms, was quantified using NanoDrop™ OneC. Iodine-125 radiolabeled AFL was used to measure encapsulation efficiency into the hydrogel and in vitro release. The initial burst was calculated by quantifying total drug release in the first 24 hours.

[5] = test system: retina; settings: vitreal concentration 6.67-10 mg/mL, 24 hr or 7 days after treatment; cited from earlier work
[6] = In vitro release of anti-VEGF from microspheres and microsphere-hydrogel DDS (PBS, 37 C); format: physicochemical; settings: for Initial Burst Percent: drug released within first 24 hours; for extension of release by hydrogel: microspheres in hydrogel versus alone; for reduction of initial burst by hydrogel: microspheres in hydrogel versus microspheres alone; for steady release rate: Days 7-196; for duration of release: microspheres suspended in hydrogel
Protocol: (§1) Labeled proteins were lyophilized, weighed, and dissolved in 1× phosphate-buffered saline (PBS, pH 7.4) to create stock solutions of 10 mg/mL for each protein, which were stored at −80° C.
Release of anti-VEGF agents was determined using a separation method also described in Osswald C. R. et al. Briefly, 15 mg of microspheres and 1 mL of the DDS (15 mg microspheres in 1 mL hydrogel) were suspended in 1.5 mL of 1×PBS to ensure detectable levels of anti-VEGF concentration throughout release. Release profiles were conducted at 37° C. under mild agitation and at predetermined intervals, 1 mL of supernatant was removed after a brief centrifugation and replaced with an equal volume of fresh buffer. Supernatants were read using a gamma counter (Packard). Cumulative release was calculated as a percent of encapsulated drug and was considered complete when the microspheres had completely degraded based on visual inspection. The IB was defined as drug released within the first 24 hours.

[7] = test system: bovine retina; settings: directly after exposure to 0.1 mg/mL; cited from earlier work
[8] = Microsphere diameter by light microscopy and ImageJ; format: physicochemical; settings: drug-loaded microspheres, Alone
Excerpt: To measure microsphere diameter, microspheres were fabricated as described above with non-radiolabeled drug. A sample was suspended in ddH2O and imaged with a microscope (×20 objective, Carl Zeiss, Germany).

[9] = test system: retina; design: species or system Long-Evans rats; settings: rat, in vivo
Protocol: (§2) All animal procedures were in accordance with protocols approved by the Institutional Animal Care and Use Committee at the Illinois Institute of Technology, and with the principles embodied in the statement on the use of animals in ophthalmic and vision research adopted by the Association for Research in Vision and Ophthalmology. Long-Evans male rats (1-3 months, 300-350 g) were purchased from Harlan Laboratories (Indianapolis, IN, USA). Animals were anesthetized using 80 mg/kg of ketamine hydrochloride (Fort Dodge Animal Health, Fort Dodge, Iowa, USA) and 10 mg/kg xylazine (AnaSed® Injection, Akorn, Inc., Decatur, IL, USA) via intraperitoneal (IP) injection. Proparacaine drops (Bausch and Lomb, Rochester, NY, USA) were used to anesthetize the corneas throughout the procedure and pupils were dilated using phenylephrine (Bausch and Lomb) and atropine drops (Bausch and Lomb). Heart rate and blood oxygen saturation were monitored with a PulseOximeter (8500AV; Nonin Medical Inc., Plymouth, MN, USA). Animals were placed on a custom-built heated stage and monitored to maintain a core body temperature of 37° C.
Animals were separated into six groups to determine the ability of the DDS of this invention to treat CNV. For analysis purposes, lesions were considered independent within each treatment group and each group contained two rats for a total of four eyes and up to 24 lesions per treatment group. […] All IVT injections were 5 μL and performed immediately after CNV induction.
The corneal electroretinogram (ERG) is a non-invasive measurement that represents the overall electrical activity of the retina in response to a stimulus flash. It is routinely used to assess retinal cellular activity and in toxicology studies. Each component of the ERG can be used to assess different retinal cell types and any alterations in the function of the retina due to the DDS would appear as changes in amplitude or sensitivity of various ERG components. Under scotopic conditions, the ERG has two important components: the a-wave and b-wave. The rising edge of the negative a-wave is generated by the photoreceptors in the outer retina; the positive b-wave is generated primarily by the bipolar cells and/or Müller cells. Another component of the ERG is the c-wave, which originates in the RPE and can be used to assess the functional integrity of the photoreceptors, the RPE cells, and the interactions between them; however, for the purposes of this research, the c-wave was not recorded or analyzed.
Under dim red light prior to and at each time point after CNV induction and DDS injection, ERG experiments were performed under scotopic conditions, with animals dark-adapted overnight prior to the experiment. Electroretinograms, in response to the full-field Ganzfeld stimulation, were recorded by a gold wire loop placed on the cornea. The reference and ground electrodes were 30 G platinum subdermal needle electrodes ([…]™ F-E2, Grass Products, Natus Neurology, Warwick, RI, USA) inserted into the cheek and nape of the neck, respectively. A-wave and b-wave intensity responses were recorded by presenting single flashes of increasing intensity (5×10^−4 to 305.7 sc cd·s·m^−2) and allowing the eye to dark adapt for 1 min after each flash. The intensity-response values for the a-wave and b-wave were fit with the Naka-Rushton equation, to determine a half-saturation intensity of the responses and maximal response.
The parameter values obtained from the Naka-Rushton analyses and IOP measurements were compared using the paired t-test verses control. […] Unless otherwise noted, significance represents p<0.05. All values are reported as sample mean±standard error of the mean.

[10] = test system: laser-induced CNV; test: Laser-induced CNV rat model, lesion area from late-phase FA images (multi-Otsu thresholding); format: in vivo, Long-Evans rats; settings: 5 μL IVT immediately after CNV induction, Weeks 1-12
Protocol: as §2, with “Proparacaine drops (Bausch and Lomb, Rochester, NY, USA) were used to anesthetize the corneas throughout the procedure and pupils were dilated using phenylephrine (Bausch and Lomb) and atropine drops (Bausch and Lomb).” left out, “C. […]” for “C.”
A confocal scanning laser ophthalmoscope (cSLO) system (Heidelberg Retina Angiograph (HRA), Heidelberg Engineering, Heidelberg, Germany) was used to image the retina. FA still images were captured at 1-2 min, 10 min and 20 min after IP injection of 0.5 mL of 20% fluorescein dye (Sigma Aldrich, St. Louis, MO, USA) and were used for quantification of CNV lesion areas. […]
CNV lesion areas were quantified using late-phase FA images. […]

[11] = Encapsulation efficiency of iodine-125 labelled anti-VEGF by gamma counter; format: physicochemical
Protocol: as §1
For each anti-VEGF agent, encapsulation efficiency (EE) was determined from the radioactivity measured using a gamma counter (Cobra-II Auto-Gamma, Packard Instrument Co., Meriden, CT) before and after microsphere preparation. EE was defined as the percent-drug within the microspheres relative to the theoretical loading amount.

[12] = test system: inflammation-induced angiogenesis in the cornea; settings: systemic or topical application; cited from earlier work
[13] = test system: mouse VEGF-A; settings: cited from earlier work
Chain of mouse VEGF-A (Q00731 205-317 limits assumed): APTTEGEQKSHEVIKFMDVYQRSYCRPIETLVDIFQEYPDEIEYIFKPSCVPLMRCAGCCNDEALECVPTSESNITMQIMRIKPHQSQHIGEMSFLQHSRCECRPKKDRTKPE

[14] = test system: CNV; settings: intravitreal, out to 28 days, doses above and below clinical dose; cited from earlier work
[15] = test system: corneal neovascularization; settings: cited from earlier work
[16] = in vivo; cited from earlier work
[17] = cited from earlier work

Molecule: CN[C@H](CC(C)C)C(=O)N[C@H]1C(=O)N[C@@H](CC(N)=O)C(=O)N[C@H]2C(=O)N[C@H]3C(=O)N[C@H](C(=O)N[C@H](C(=O)O)c4cc(O)cc(O)c4-c4cc3ccc4O)[C@H](O)c3ccc(c(Cl)c3)Oc3cc2cc(c3O[C@@H]2O[C@H](CO)[C@@H](O)[C@H](O)[C@H]2O[C@H]2C[C@](C)(N)[C@H](O)[C@H](C)O2)Oc2ccc(cc2Cl)[C@H]1O [VAN, vancomycin]
- treatment efficacy [1]: showed treatment efficacy
- duration of controlled release [2]: over 20 days
- bioactivity [3]: bioactivity was maintained throughout the release

Molecule: aflibercept
- release rates in the presence of DEX-np [4]: increased release rates
- ERG parameters [5]: did not alter any ERG parameters
- rate of release from the DDS, times less than that of ranibizumab ([6]; microsphere-hydrogel DDS): 2.3 ×
- Initial Burst Percent ([6]; microspheres Alone): 83.3 ± 2.1%
- extension of release by hydrogel [6]: 27.2%
- reduction of initial burst by hydrogel [6]: 76%
- steady release rate ([6]; microspheres in hydrogel): 0.065 µg/day
- Initial Burst Percent ([6]; microspheres in hydrogel): 20.1 ± 0.8%
- duration of release [6]: 196 days and ~200 days
- encapsulated drug remaining entrapped in hydrogel after complete degradation of microspheres ([6]; non-degradable hydrogel, end of release): 32.7±1.1%
- decrease in maximal scotopic b-wave response [7]: 43.1%
- Diameter [8]: 8.0 ± 0.3 μm
- a-wave half-saturation intensity versus control [9]: No significant difference
- half-maximal a- or b-wave response (half-saturation intensity) [9]: No significant difference
- maximal a-wave response post-treatment, lower than control [9]: ~40%
- maximal a-wave response, Control versus Week 1-Week 12 [9]: significant difference
- CNV lesion area compared to non-treated animals [10]: significantly smaller CNV lesions compared to non-treated animals at Week 4 and Week 12
- Encapsulation Efficiency Percent ([11]; microspheres Alone): 44.8 ± 2.0%
- Encapsulation Efficiency Percent ([11]; microspheres in hydrogel): 44.6 ± 1.4%

Molecule: bevacizumab
- inhibition of corneal angiogenesis [12]: significantly inhibited inflammation-induced angiogenesis
- binding to mouse VEGF-A [13]: binds to mouse VEGF-A
- therapeutic effect on CNV [14]: no therapeutic effect was observed
- corneal angiogenesis ([15]; sub-conjunctival injection): can significantly inhibit corneal angiogenesis
- corneal neovascularization ([15]; topical): limited corneal neovascularization

Molecule: ranibizumab
- Initial Burst Percent ([6]; microspheres Alone): 50.3 ± 2.1%
- extension of release by hydrogel [6]: 27.2%
- reduction of initial burst by hydrogel [6]: 58%
- steady release rate ([6]; microspheres in hydrogel): 0.153 µg/day
- Initial Burst Percent ([6]; microspheres in hydrogel): 21.0 ± 2.0%
- duration of release [6]: 196 days and ~200 days
- Diameter [8]: 7.5 ± 0.4 μm
- a-wave parameters (maximal response, half-saturation intensity) versus control [9]: no significant differences
- b-wave parameters versus control [9]: no significant differences
- half-life t½ [16]: 220 h
- CNV lesion area compared to non-treated animals [10]: only had a significant decrease in lesion area at Week 12
- therapeutic effect on CNV [14]: no therapeutic effect was observed
- Encapsulation Efficiency Percent ([11]; microspheres Alone): 91.3 ± 2.5%

B1: ovalbumin (protein, UniProt P01012 2-386, looked up)
Ovalbumin: GSIGAASMEFCFDVFKELKVHHANENIFYCPIAIMSALAMVYLGAKDSTRTQINKVVRFDKLPGFGDSIEAQCGTSVNVHSSLRDILNQITKPNDVYSFSLASRLYAEERYPILPEYLQCVKELYRGGLEPINFQTAADQARELINSWVESQTNGIIRNVLQPSSVDSQTAMVLVNAIVFKGLWEKAFKDEDTQAMPFRVTEQESKPVQMMYQIGLFRVASMASEKMKILELPFASGTMSMLVLLPDEVSGLEQLESIINFEKLTEWTSSNVMEERKIKVYLPRMKMEEKYNLTSVLMAMGITDVFSSSANLSGISSAESLKISQAVHAAHAEINEAGREVVGSAEAGVDAASVSEEFRADHPFLFCIKHIATNAVLFFGRCVSP
notes: model protein (45 kDa) used in initial development of the DDS
- duration of controlled and extended release ([17]; microsphere-hydrogel DDS): approximately 200 days
- extension of release compared to microspheres alone ([17]; microspheres within hydrogel): ~30%
- residual entrapment in hydrogel ([17]; prior study): 8.01±0.76%
